One molecule from patent publication US20240174741A1 (IMMUNOME, published 2024) can be followed below.

The target in one test is T1, Human IL1RAPL1-Fc (human, UniProt Q9NZN1 19-357, limits assumed).
T1 construct: Bought reagent
T1 sequence (looked up): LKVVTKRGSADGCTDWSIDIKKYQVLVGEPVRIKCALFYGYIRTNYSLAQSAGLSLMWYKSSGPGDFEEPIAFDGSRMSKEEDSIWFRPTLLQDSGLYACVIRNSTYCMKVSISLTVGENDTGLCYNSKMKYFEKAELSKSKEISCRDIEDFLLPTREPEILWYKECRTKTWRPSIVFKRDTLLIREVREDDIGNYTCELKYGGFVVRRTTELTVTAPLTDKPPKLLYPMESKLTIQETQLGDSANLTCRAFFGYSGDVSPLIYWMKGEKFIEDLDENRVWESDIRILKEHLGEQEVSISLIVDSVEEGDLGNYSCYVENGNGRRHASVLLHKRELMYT
As to the kind of experiment: MSD plate assay, IL-38 on plate-bound IL1RAPL1-Fc, detected with biotinylated anti-IL-38 clone H127C. As for the experimental part: (§1) Neutralization of human IL-38 binding to IL1RAPL1 or IL-36R. Human IL1RAPL1-Fc (Sino Biological, #10177-H02H) and human IL-36R-Fc (R&D Systems) were diluted in coating Buffer (50 mM Carbonate-Bicarbonate Buffer, pH 9.4) at final concentration of 0.5 μg/mL and coated on MSD high bind plates (MSD) for approximately two hours at RT. Recombinant human IL-38 (Adipogen) was diluted in assay Diluent (1% BSA, 0.1% Tween 20, in 1×PBS). For antibody testing, anti-IL-38 antibodies were pre-incubated with IL-38 for approximately one hour at RT. IL-38 or antibody-IL-38 mixture was transferred to pre-coated MSD plates and incubated for approximately two hours at RT. After washing, the MSD plate was incubated with biotinylated mouse anti-human IL-38 (clone H127C, Thermo Fisher) at final concentration of 100 ng/mL and Sulfo-Tag-Streptavidin (MSD) at final concentration of 100 ng/mL for 1 hour at RT. Binding of IL-38 to plate-bound IL1RAPL1-Fc or human IL-36R-Fc was detected using the Meso Sector S 600 plate reader. Data are plotted using GraphPad Prism version 9.0.1. Dose response curves were fitted with “[Inhibitor] vs. response—Variable slope (four parameters)” method.

The target of the next test is T2, human IL-36R-Fc (human, UniProt Q9HB29 20-335, limits assumed).
T2 construct: Bought reagent
T2 sequence (looked up): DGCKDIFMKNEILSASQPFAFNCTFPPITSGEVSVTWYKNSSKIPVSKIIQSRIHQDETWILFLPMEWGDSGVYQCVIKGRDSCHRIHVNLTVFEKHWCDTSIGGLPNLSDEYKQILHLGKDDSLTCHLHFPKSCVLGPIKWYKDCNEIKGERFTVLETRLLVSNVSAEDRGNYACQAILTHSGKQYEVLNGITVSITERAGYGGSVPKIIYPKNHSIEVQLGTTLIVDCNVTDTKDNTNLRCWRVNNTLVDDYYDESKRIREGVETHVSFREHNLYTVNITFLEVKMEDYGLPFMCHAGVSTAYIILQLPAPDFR
Briefly: MSD plate assay, IL-38 on plate-bound IL-36R-Fc, detected with biotinylated anti-IL-38 clone H127C. As for the experimental part:
as §1

B1: human interleukin-38 (IL-38) (ligand, UniProt Q8WWZ1 1-152, looked up)
chain: MCSLPMARYYIIKYADQKALYTRDGQLLVGDPVADNCCAEKICILPNRGLARTKVPIFLGIQGGSRCLACVETEEGPSLQLEDVNIEELYKGGEEATRFTFFQSSSGSAFRLEAAAWPGWFLCGPAEPQQPVQLTKESEPSARTKFYFEQSW
notes: One entry is used for all sources of human IL-38; The Adipogen protein is called full length; also called IL1F10/IL38; IL1F10
Regarding B1, the binding result in the test with Human IL1RAPL1-Fc and with human IL-36R-Fc was “binds” each time.
